Data taken from article PMC3868960.

Target: tumor necrosis factor-related apoptosis-inducing ligand (TRAIL) (human) (UniProt P50591)
Assay: non-reducing SDS-PAGE

**Q.** “tumor necrosis factor-related apoptosis-inducing ligand (TRAIL) (from UniProt P50591 1-281)” was tested. Which percent dimer did it give?
**A.** 27.2%

**Q.** What about the percent monomer of the same substance?
**A.** 70.1%

**Q.** What about the percent trimer of the same substance?
**A.** 2.62%
